From the supplement of paper PMC11246515
± gives the standard deviation of the averaged measurements.

Test: total protein half-life in vivo (active degradation + dilution); higher = more stable protein
[1] = E. coli NCM3722 delta-clpP delta-lon delta-hslV, growth: N-lim chemostat, doubling time 6 h
[2] = E. coli NCM3722 delta-clpP, growth: N-lim chemostat, doubling time 6 h
[3] = E. coli NCM3722 delta-hslV, growth: N-lim chemostat, doubling time 6 h
[4] = E. coli NCM3722 delta-lon, growth: N-lim chemostat, doubling time 6 h
[5] = E. coli NCM3722 delta-smpB, growth: N-lim chemostat, doubling time 6 h
[6] = wild type E. coli NCM3722, growth: C-lim chemostat, doubling time 3 h
[7] = wild type E. coli NCM3722, growth: C-lim chemostat, doubling time 6 h
[8] = wild type E. coli NCM3722, growth: C-lim chemostat, doubling time 12 h
[9] = wild type E. coli NCM3722, growth: N-lim chemostat, doubling time 6 h
[10] = wild type E. coli NCM3722, growth: N-lim chemostat, doubling time 12 h
[11] = wild type E. coli NCM3722, growth: P-lim chemostat, doubling time 6 h
[12] = wild type E. coli NCM3722, growth: P-lim chemostat, doubling time 12 h

Sequence	total protein half-life in vivo [1] [h]	total protein half-life in vivo [2] [h]	total protein half-life in vivo [3] [h]	total protein half-life in vivo [4] [h]	total protein half-life in vivo [5] [h]	total protein half-life in vivo [6] [h]	total protein half-life in vivo [7] [h]	total protein half-life in vivo [8] [h]	total protein half-life in vivo [9] [h]	total protein half-life in vivo [10] [h]	total protein half-life in vivo [11] [h]	total protein half-life in vivo [12] [h]
MKQTVAAYIAKTLESAGVKRIWGVTGDSLNGLSDSLNRMGTIEWMSTRHEEVAAFAAGAEAQLSGELAVCAGSCGPGNLHLINGLFDCHRNHVPVLAIAAHIPSSEIGSGYFQETHPQELFRECSHYCELVSSPEQIPQVLAIAMRKAVLNRGVSVVVLPGDVALKPAPEGATMHWYHAPQPVVTPEEEELRKLAQLLRYSSNIALMCGSGCAGAHKELVEFAGKIKAPIVHALRGKEHVEYDNPYDVGMTGLIGFSSGFHTMMNADTLVLLGTQFPYRAFYPTDAKIIQIDINPASIGAHSKVDMALVGDIKSTLRALLPLVEEKADRKFLDKALEDYRDARKGLDDLAKPSEKAIHPQYLAQQISHFAADDAIFTCDVGTPTVWAARYLKMNGKRRLLGSFNHGSMANAMPQALGAQATEPERQVVAMCGDGGFSMLMGDFLSVVQMKLPVKIVVFNNSVLGFVAMEMKAGGYLTDGTELHDTNFARIAEACGITGIRVEKASEVDEALQRAFSIDGPVLVDVVVAKEELAIPPQIKLEQAKGFSLYMLRAIISGRGDEVIELAKTNWLR	5.5 ± 0.51	5.2 ± 0.97	4.77 ± 0.08	5.321 ± 0.051	4.71 ± 0.4	3.19 ± 0.15	5.59 ± 0.21	11.2 ± 2.6	4.7 ± 0.064	7.734 ± 0.064	5.614 ± 0.02	11.6 ± 0.17
MKRVLIPGVILCGADVAQAVDDKNMYMHFFEEMTVYAPVPVPVNGNTHYTSESIERLPTGNGNISDLLRTNPAVRMDSTQSTSLNQGDIRPEKISIHGASPYQNAYLIDGISATNNLNPANESDASSATNISGMSQGYYLDVSLLDNVTLYDSFVPVEFGRFNGGVIDAKIKRFNADDSKVKLGYRTTRSDWLTSHIDENNKSAFNQGSSGSTYYSPDFKKNFYTLSFNQELADNFGVTAGLSRRQSDITRADYVSNDGIVAGRAQYKNVIDTALSKFTWFASDRFTHDLTLKYTGSSRDYNTSTFPQSDREMGNKSYGLAWDMDTQLAWAKLRTTVGWDHISDYTRHDHDIWYTELSCTYGDITGRCTRGGLGHISQAVDNYTFKTRLDWQKFAVGNVSHQPYFGAEYIYSDAWTERHNQSESYVINAAGKKTNHTIYHKGKGRLGIDNYTLYMADRISWRNVSLMPGVRYDYDNYLSNHNISPRFMTEWDIFANQTSMITAGYNRYYGGNILDMGLRDIRNSWTESVSGNKTLTRYQDLKTPYNDELAMGLQQKIGKNVIARANYVYREAHDQISKSSRTDSATKTTITEYNNDGKTKTHSFSLSFELAEPLHIRQVDINPQIVFSYIKSKGNLSLNNGYEESNTGDNQVVYNGNLVSYDSVPVADFNNPLKISLNMDFTHQPSGLVWANTLAWQEARKARIILGKTNAQYISEYSDYKQYVDEKLDSSLTWDTRLSWTPQFLQQQNLTISADILNVLDSKTAVDTTNTGVATYASGRTFWLDVSMKF	5.87 ± 0.22	5.83 ± 0.27	> 8		5.751 ± 0.012	3.16 ± 0.12	6.17 ± 0.26	9.31 ± 0.88	6.68	12.2 ± 1.3	6.72	14.44 ± 0.031
MTTQRSPGLFRRLAHGSLVKQILVGLVLGILLAWISKPAAEAVGLLGTLFVGALKAVAPILVLMLVMASIANHQHGQKTNIRPILFLYLLGTFSAALAAVVFSFAFPSTLHLSSSAGDISPPSGIVEVMRGLVMSMVSNPIDALLKGNYIGILVWAIGLGFALRHGNETTKNLVNDMSNAVTFMVKLVIRFAPIGIFGLVSSTLATTGFSTLWGYAQLLVVLVGCMLLVALVVNPLLVWWKIRRNPFPLVLLCLRESGVYAFFTRSSAANIPVNMALCEKLNLDRDTYSVSIPLGATINMAGAAITITVLTLAAVNTLGIPVDLPTALLLSVVASLCACGASGVAGGSLLLIPLACNMFGISNDIAMQVVAVGFIIGVLQDSCETALNSSTDVLFTAAACQAEDDRLANSALRN [P0AGE4]	5.56 ± 0.69	5.78	6.04	5.28	6.21 ± 0.49	3.36	5.87 ± 0.55	12.3 ± 0.23	5.94 ± 0.44	11.6	5.5355 ± 0.00083	10.7 ± 0.53
MTFSLFGDKFTRHSGITLLMEDLNDGLRTPGAIMLGGGNPAQIPEMQDYFQTLLTDMLESGKATDALCNYDGPQGKTELLTLLAGMLREKLGWDIEPQNIALTNGSQSAFFYLFNLFAGRRADGRVKKVLFPLAPEYIGYADAGLEEDLFVSARPNIELLPEGQFKYHVDFEHLHIGEETGMICVSRPTNPTGNVITDEELLKLDALANQHGIPLVIDNAYGVPFPGIIFSEARPLWNPNIVLCMSLSKLGLPGSRCGIIIANEKIITAITNMNGIISLAPGGIGPAMMCEMIKRNDLLRLSETVIKPFYYQRVQETIAIIRRYLPENRCLIHKPEGAIFLWLWFKDLPITTKQLYQRLKARGVLMVPGHNFFPGLDKPWPHTHQCMRMNYVPEPEKIEAGVKILAEEIERAWAESH	3.05 ± 0.33	2.32 ± 0.096	2.53 ± 0.12	2.72 ± 0.059	2.76 ± 0.11		4.26 ± 0.073	7.25 ± 0.17	2.46 ± 0.28	3.33 ± 0.17	4.994 ± 0.0076	9.24 ± 0.47
MIPEKRIIRRIQSGGCAIHCQDCSISQLCIPFTLNEHELDQLDNIIERKKPIQKGQTLFKAGDELKSLYAIRSGTIKSYTITEQGDEQITGFHLAGDLVGFDAIGSGHHPSFAQALETSMVCEIPFETLDDLSGKMPNLRQQMMRLMSGEIKGDQDMILLLSKKNAEERLAAFIYNLSRRFAQRGFSPREFRLTMTRGDIGNYLGLTVETISRLLGRFQKSGMLAVKGKYITIENNDALAQLAGHTRNVA [P0A9E5]	4.34 ± 0.13	2.99 ± 0.00054	1.2 ± 0.057	1.4 ± 0.028	1.24 ± 0.03	1.23 ± 0.064	1.708 ± 0.0036	2.2 ± 0.069	1.35 ± 0.091	1.68 ± 0.09	1.65 ± 0.039	2.37 ± 0.86
